Measurements: patent WO2006033413A1 (dated 2006)

T1: OC-1 peptide (human)
T1 construct: Conjugated to BSA as the coating antigen in the screening ELISA; also called C-terminal 12 amino acid partial peptide of human osteocalcin
T1 peptide: FQEAYRRFYGPV


How the values were obtained:
[1] = target: human osteocalcin (human) (UniProt P02818); assay: ELISA: 0.5 ug/mL KTM-219 on plate coated with 2 ug/mL human osteocalcin, peroxidase anti-mouse IgG detection (zero-competitor point of the competition ELISA)
OC-1 peptide [2] = target: T1, OC-1 peptide; assay: competitive inhibition ELISA on OC peptide-BSA with free OC peptide (hybridoma screening)
OC-1 peptide [3] = target: T1, OC-1 peptide; assay: open sandwich ELISA: MBP-VL adsorbed on plate, VH-AP in solution, p-nitrophenyl phosphate, OD405

Row | Binder | absorbance (450 nm) without OC-1 peptide [1] [absorbance] | binding result (OC-1 peptide [2]) | binding result (OC-1 peptide [3])
1 | mouse monoclonal antibody KTM-219 (antibody, IgG1, V domains shown, Biotin-labelled when used as the detection antibody in the sandwich ELISA; also called anti-OC-1 peptide monoclonal antibody) VH: EVQLEESGAEFVKAGASVKLSCKTSGYTFNNYWIHWVKQSPGQGLEWIGEIDPSDGYSNYNQKFKGKATLTVDKSSSTAYMHLNSLTSEDSAVYYCTSSTSVGGSWGQGTTVTVSS VL: DIELTQSPLSLPVSLGDQASISCTSSQSLLHSNGDTYLHWYLQKPGQSPKLLIYTLSNRFSGVPDRFSGSGSGTDFTLKISRVEAADLGIYFCSQTTHVPYTFGGGTKLEIKR | 2.28 | binds | –
2 | KTM-219 VH-AP fusion protein together with MBP-VL fusion protein (open sandwich pair) (other, Two separate purified periplasmic proteins; MBP-VL (about 56.5 kDa) is adsorbed on the plate and VH-AP (about 61.9 kDa) is added in solution; also called VH-alkaline phosphatase fusion protein; pET-VH219-AP product; not shown: E. coli alkaline phosphatase (1450 bp fragment of pPhoA); His tag; His-Myc tag) VH: EVQLEESGAEFVKAGASVKLSCKTSGYTFNNYWIHWVKQSPGQGLEWIGEIDPSDGYSNYNQKFKGKATLTVDKSSSTAYMHLNSLTSEDSAVYYCTSSTSVGGSWGQGTTVTVSS VL: DIELTQSPLSLPVSLGDQASISCTSSQSLLHSNGDTYLHWYLQKPGQSPKLLIYTLSNRFSGVPDRFSGSGSGTDFTLKISRVEAADLGIYFCSQTTHVPYTFGGGTKLEIKR | – | – | binds
